Results taken from patent publication US20210380703A1.
Changes are numbered by the printed parent chain.

B1: 365_A08 (antibody, V domains shown)
VH: EVQLLESGGGLVQPGGSLRLSCAASGFTFSSYSMNWVRQAPGKGLEWVASINYNGGYKSYADSVKGRFTISRDNSKNTLYLQMNSLRAEDTAVYYCARGATWHDTHLDYWGQGTLVTVSS
VL: DIQMTQSPSSLSASVGDRVTITCRASQSIITYLNWYQQKPGKAPKLVIYAATSRASGVPSRFSGSGSGTDFTLTISSLQPEDFATYYCQQSDNTPLTFGGGTKVEIK
B2: 365_F05 (antibody, V domains shown)
VH: B1 VH with S33G, K58T
VL: B1 VL with I30V, L33V, V47L, D92Y, N93E
B3: 369_H12 (antibody, V domains shown)
VH: B1 VH with S50G
VL: B1 VL with I30V, L33V, D92Y, N93D, T94S
B4: 369_H02 (antibody, V domains shown)
VH: B1 VH with S30D, S31D, A49S, S50N
VL: B1 VL with T31S, V47L, D92Y, N93D, T94S
B5: 367_F09 (antibody, V domains shown)
VH: B1 VH with S30D, N35H, S50G, K58T
VL: B1 VL with I30L, V47L, R54L, N93S, T94N
B6: 367_B06 (antibody, V domains shown)
VH: B1 VH with S50N, K58T, S59G
VL: B1 VL with T31S, L33V, R54L, A55H, D92Y, T94S
B7: 368_D12 (antibody, V domains shown)
VH: B1 VH with S33G, A49S, K58T
VL: B1 VL with I30L, T31S, L33V, D92Y, T94N
B8: 366_G09 (antibody, V domains shown)
VH: B1 VH with S30D, S31D, G55S, K58T, S59G
VL: B1 VL with I30L, T31S, L33V, D92Y, N93D, T94L
B9: 367_D05 (antibody, V domains shown)
VH: B1 VH with S31D, A49S
VL: B1 VL with T31S, L33V, R54L, D92Y, N93D, T94S
B10: 368_H11 (antibody, V domains shown)
VH: B1 VH with S30D, S33G, N35H, K58T
VL: B1 VL with I30L, T31S, V47L, N93D
B11: 369_A11 (antibody, V domains shown)
VH: B1 VH with S30D, S33G, S50N, S59G
VL: B1 VL with A55H, D92Y, N93E, T94S
B12: 369_H08 (antibody, V domains shown)
VH: B1 VH with S50G, G55S
VL: B1 VL with I30L, T31S, L33V, R54L, D92Y, N93E, T94S
B13: 369_E08 (antibody, V domains shown)
VH: B1 VH with G55S, K58T, S59G
VL: B1 VL with I30L, L33V, V47L, D92Y, N93D, T94S
B14: 365_D10 (antibody, V domains shown)
VH: B1 VH with S50G, K58T, S59G
VL: B1 VL with I30S, V47L, D92Y, N93E, T94S
B15: 369_G05 (antibody, V domains shown)
VH: B1 VH with S50G, K58T
VL: B1 VL with I30V, T31S, V47L, A55H, D92Y, N93D, T94S
B16: 369_E05 (antibody, V domains shown)
VH: B1 VH with S31D, S33G, S50N
VL: B1 VL with I30L, V47L, R54L, D92Y, N93E
B17: 367_D09 (antibody, V domains shown)
VH: B1 VH with S30D, S33G
VL: B1 VL with I30L, V47L, R54L, D92Y, N93D, T94N
B18: 369_D08 (antibody, V domains shown)
VH: B1 VH with S31D, S59G
VL: B1 VL with I30L, V47L, D92Y, N93D
B19: 368_G03 (antibody, V domains shown)
VH: B1 VH with A49S, S50G, G55S, K58T, H106A
VL: B1 VL with I30L, T31S, D92Y, N93D
B20: 365_C04 (antibody, V domains shown)
VH: B1 VH with S30D, S50N, S59G
VL: B1 VL with I30L, R54L, D92Y, N93D
B21: 365_C02 (antibody, V domains shown)
VH: B1 VH with S30D, A49S, S50N, S59G
VL: B1 VL with I30S, A55H, D92Y, N93E, T94N
B22: 369_F05 (antibody, V domains shown)
VH: B1 VH with A49S, S50G
VL: B1 VL with I30S, T31S, V47L, T52S, R54L, A55Q, S91G, D92Y, N93D, T94S
B23: 367_E07 (antibody, V domains shown)
VH: B1 VH with S31D, A49S, S59G
VL: B1 VL with I30L, T31S, L33V, D92Y, N93E, T94N
B24: 367_C08 (antibody, V domains shown)
VH: B1 VH with S30D, N35H, S50G, K58T
VL: B1 VL with I30L, V47L, R54L, N93S, T94N
B25: 369_F09 (antibody, V domains shown)
VH: B1 VH with S33G, N35H, S50G, K58T
VL: B1 VL with I30L, L33V, V47L, D92Y, N93D, T94S
B26: 368_C11 (antibody, V domains shown)
VH: B1 VH with S31D, A49S, G55S
VL: B1 VL with T31S, V47L, D92Y, N93D, T94N
B27: 367_A02 (antibody, V domains shown)
VH: B1 VH with S30D, S33G, A49S, G55S, S59G
VL: B1 VL with T31S, V47L, A51V, D92Y, N93D
B28: 366_D08 (antibody, V domains shown)
VH: B1 VH with S33G, N35H, A49S, S50N
VL: B1 VL with I30L, T31S, L33V, R54L, D92Y, N93E, T94N
B29: 368_D02 (antibody, V domains shown)
VH: B1 VH with S30D, S31D, S33G, A49S, S50N, K58T, S59G
VL: B1 VL with I30S, A55H, D92Y, N93D
B30: 368_H06 (antibody, V domains shown)
VH: B1 VH with S30D, S33G, N35H, S50N
VL: B1 VL with I30L, L33V, V47L, A51T, D92Y, N93D, T94N
B31: 368_F06 (antibody, V domains shown)
VH: B1 VH with S30D, S31D, N35H, S50N, G55S, K58T, S59G
VL: B1 VL with I30L, T31S, A51T, D92Y, N93E, T94N
B32: 365_D02 (antibody, V domains shown)
VH: B1 VH with N35H, K58T
VL: B1 VL with I30V, V47L, R54L, D92Y, N93D, T94N
B33: 368_G10 (antibody, V domains shown)
VH: B1 VH with N35H, A49S, K58T
VL: B1 VL with I30V, T31S, L33V, D92Y, N93D
B34: 369_C12 (antibody, V domains shown)
VH: B1 VH with S33G, S50N, S59G
VL: B1 VL with I30L, V47L, A55H, D92Y, N93D

Target: Human Fc (human)
Assay: ELISA; negative control

optical density | Binder
0.256 OD | B1
0.376 OD | B2
0.414 OD | B3
0.408 OD | B4
0.289 OD | B5
0.378 OD | B6
0.329 OD | B7
0.291 OD | B8
0.265 OD | B9
0.355 OD | B10
0.366 OD | B11
0.389 OD | B12
0.272 OD | B13
0.641 OD | B14
0.384 OD | B15
0.282 OD | B16
0.381 OD | B17

optical density | Binder
0.241 OD | B18
0.312 OD | B19
0.305 OD | B20
0.362 OD | B21
0.331 OD | B22
0.221 OD | B23
0.278 OD | B24
0.5 OD | B25
0.275 OD | B26
0.305 OD | B27
0.312 OD | B28
0.321 OD | B29
0.311 OD | B30
0.249 OD | B31
0.486 OD | B32
0.356 OD | B33
0.418 OD | B34
